Test results published in publication PMC10035508.

Target: PTBP1 (hsPTBP1) (Homo sapiens) (UniProt P26599)
Test: EMSA
Details: EMSA in RBB: 10 mM sodium cacodylate pH 7.0, 100 mM NaCl, 1 mM MgCl2, 1 mM DTT, 0.1 ug/uL BSA, 0.1 ug/uL yeast tRNA, 0.4 U/uL RNasin, 1 U/uL heparin …

PTBP1 (hsPTBP1) (Homo sapiens), sequence (P26599 whole entry): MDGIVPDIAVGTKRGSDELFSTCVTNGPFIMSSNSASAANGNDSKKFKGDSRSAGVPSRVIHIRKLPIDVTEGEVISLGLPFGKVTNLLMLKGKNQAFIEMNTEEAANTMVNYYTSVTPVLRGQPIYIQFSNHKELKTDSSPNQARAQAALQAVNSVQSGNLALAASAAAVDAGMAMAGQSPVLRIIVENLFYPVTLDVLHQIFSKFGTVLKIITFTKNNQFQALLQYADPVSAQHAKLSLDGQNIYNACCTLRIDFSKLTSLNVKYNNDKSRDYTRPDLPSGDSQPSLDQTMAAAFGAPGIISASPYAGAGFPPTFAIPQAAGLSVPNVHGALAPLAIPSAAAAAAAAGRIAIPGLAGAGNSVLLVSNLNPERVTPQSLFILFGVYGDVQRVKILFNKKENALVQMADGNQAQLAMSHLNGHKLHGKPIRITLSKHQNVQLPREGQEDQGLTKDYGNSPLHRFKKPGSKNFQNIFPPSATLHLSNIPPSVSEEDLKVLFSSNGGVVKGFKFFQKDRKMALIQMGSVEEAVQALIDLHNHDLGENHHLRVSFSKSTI

## GGGUCUCCUUUCAGCCUGCUUCAGGAAUGAGCUUGUGGAGCCCCGGAGAGAAACUCCAAAACAAUCUGACGUCUUCUUUAGACAUUCCAAGCCCCCAAACCGAUCAGUGUAC [FRAGT7]
  binding: no binding

## GGGGUUCCUCCCCUCCAUCUUCCCACACCCAGUCACCAGCACUGUAUUUUCUGUCACCAAGACAAUGAUUUCUUGUUAUUGAGGCUGUUGCUUUUGUGGAUGUG [CPA1]
  binding: no binding
